This is an account of results in patent publication US20220047716A1 (SUTRO BIOPHARMA, published 2022).

The chains are these.
B1: ADC Molecule 4 (1848-H01 FolRα antibody, Y180/F404, Conjugate P) (antibody, V domains shown)
VH: EVQLVESGGGLVQPGGSLRLSCAASGFNIRTQSIHWVRQAPGKGLEWIGDIFPIDGITDYADSVKGRFTISADTSKNTAYLQMNSLRAEDTAVYYCARGSWSWPSGMDYYLDYWGQGTLVTVSS
VL: not shown
modifications: non-natural amino acids at HC-Y180 and HC-F404, each conjugated to the cleavable hemiasterlin linker-drug (Conjugate P); both sites lie in the constant region, outside the VH entry
B2: ADC Molecule 4 (antibody 1848-H01, Y180/F404, Conjugate P) (antibody, V domains shown)
VH: B1 VH
VL: not shown
modifications: non-natural amino acid (para-azidomethyl-L-phenylalanine, pAMF) at heavy chain constant sites HC-Y180 and HC-F404 (EU numbering), each conjugated to cleavable hemiasterlin linker-drug (Conjugate P); DAR 3.73
B3: ADC Molecule 24 (antibody 1848-H01 V262E, Y180/F404, Conjugate Q) (antibody, V domains shown)
VH: B1 VH
VL: not shown
modifications: non-natural amino acid (pAMF) at heavy chain constant sites HC-Y180 and HC-F404 (EU numbering), each conjugated to cleavable (ValAla) hemiasterlin linker-drug (Conjugate Q); DAR 3.76
B4: ADC Molecule 20 (antibody 1848-H01, Y180/F404, Conjugate Q) (antibody, V domains shown)
VH: B1 VH
VL: not shown
modifications: non-natural amino acid (pAMF) at heavy chain constant sites HC-Y180 and HC-F404 (EU numbering), each conjugated to cleavable (ValAla) hemiasterlin linker-drug (Conjugate Q); DAR 3.81
B5: ADC Molecule 23 (antibody 1848-H01 V262E, Y180/F404, Conjugate P) (antibody, V domains shown)
VH: B1 VH
VL: not shown
modifications: non-natural amino acid (pAMF) at heavy chain constant sites HC-Y180 and HC-F404 (EU numbering), each conjugated to cleavable hemiasterlin linker-drug (Conjugate P); DAR 3.57
B6: SRP2060-E10 (antibody, V domains shown)
VH: EVQLLESGGGLVQPGGSLRLSCAFSGFSLSTFGMGVGWVRQAPGKGLEWVSHIWWDDDKYYHPALKGRFTISKDNSKNTVYLQMNSLRAEDTAVYYCGRNHFPHYYGSSHWYFNVWGQGTTVTVSS
VL: EIVMTQSPATLSLSPGERATLSCKASQDINSYLSWYQQKPGQAPRLLIYRANRLVDGIPARFSGSGSGTDYTLTISSLEPEDFAVYYCLQYDEFPYTFGGGTKVEIK
B7: SRP2060-B01 (antibody, V domains shown)
VH: B6 VH with F24L, P43T, Y81H
VL: DIQMTQSPSTLSASVGDRVTITCKASQDINSYLSWYQQKPGKAPKLLIYRANRLVDGVPSRFSGSGSGTEFTLTISSLQPDDFATYYCLQYDEFPYTFGGGTKVEIK
B8: SRP2060-A06 (antibody, V domains shown)
VH: B6 VH with S51G, H62Y, N114D
VL: B7 VL
B9: SRP2060-E05 (antibody, V domains shown)
VH: B6 VH with I71V
VL: B6 VL
B10: SRP1848-D03 (antibody, V domains shown)
VH: B1 VH with L11V, T31Y, Q32F, I48V, I54N, I57S, D90E, S100H, M107Y, D108W
VL: not shown
B11: SRP1848-E06 (antibody, V domains shown)
VH: EVQLVESGGGLVQPSGSLRLSCAASGFNINRYYIHWVRQAPGKGLEWVGGITPNDGYTDYADSVEGRFTTSADTSKNTAYLQMNSLRAEDTAVYYCARGTWSWPSGHSYYLDYWGQGTLVTVSS
VL: not shown
B12: SRP1848-A02 (antibody, V domains shown)
VH: EVQLVESGGGLVQPGGSLRLSCAASGFNISGFRIHWVRQAPGKGLEWVAGIYPESGATYYADSVKGRFTISADTSKNTAYLQMNSLRAEDTAVYYCARHLYVWDWVLDHVLDYWGQGTLVTVSS
VL: not shown
B13: SRP1848-G03 (antibody, V domains shown)
VH: EVQLVESGGGLVQPGGSLRLSCAASGFNISTYYIHWVRQAPGKGLEWVGGITPSDGFTDYADSVKGRSTISADTSKNTAYLQMNSLRAEDTAVYYCARGSWSWPSGHGYFLDYWGQGTLVTVSS
VL: not shown
B14: SRP1848-E03 (antibody, V domains shown)
VH: B13 VH with V12A, S30G, T31N, S54R, S68F, M83V, S105A, G108S, F110Y
VL: not shown
B15: SRP1848-H01 (antibody, V domains shown)
VH: B1 VH
VL: not shown
B16: SRP1848-G04 (antibody, V domains shown)
VH: EVQLVESGGGLVQPGGSLRLSCAASGFNIHSTDIHWVRQAPGKGLEWVAYITPAGGATFYADSVKGRFTISADTSKNTAYLQMNSLRAEDTAVYYCARYPYWFAGYMDYWGQGTLVTVSS
VL: not shown
B17: SRP1848-G10 (antibody, V domains shown)
VH: B16 VH with G16S, H30R, F59Y, M107I
VL: not shown
B18: SRP1848-G06 (antibody, V domains shown)
VH: B16 VH with H30R, F59Y, S63N, Y99Q
VL: not shown
B19: SRP1848-G07 (antibody, V domains shown)
VH: B16 VH with F59W, Y101F
VL: not shown
B20: SRP1848-G09 (antibody, V domains shown)
VH: B16 VH with H30R, S31G, Y99H, P100E, A104S
VL: not shown
B21: SRP1848-G11 (antibody, V domains shown)
VH: B16 VH with H30S, F59W, A104S
VL: not shown
B22: ADC Molecule 4 (antibody, V domains shown)
VH: B1 VH
VL: not shown
modifications: non-natural amino acids at HC-Y180 and HC-F404 (constant region, outside this VH entry) linked to cleavable hemiasterlin linker-drug (Conjugate P), DAR about 3.7-3.8

Where a chain is given by its changes, count along the chain named. Numbers in names are those of the source.

T1 sequence (P15328 25-234 limits assumed): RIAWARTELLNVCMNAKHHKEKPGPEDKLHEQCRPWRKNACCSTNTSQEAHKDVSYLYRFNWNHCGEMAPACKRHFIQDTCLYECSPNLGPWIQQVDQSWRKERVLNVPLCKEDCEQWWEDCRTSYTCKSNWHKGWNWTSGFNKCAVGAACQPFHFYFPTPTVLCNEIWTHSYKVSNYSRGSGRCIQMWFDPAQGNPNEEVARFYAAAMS
human folate receptor beta (hFolRβ), sequence (P14207 17-230): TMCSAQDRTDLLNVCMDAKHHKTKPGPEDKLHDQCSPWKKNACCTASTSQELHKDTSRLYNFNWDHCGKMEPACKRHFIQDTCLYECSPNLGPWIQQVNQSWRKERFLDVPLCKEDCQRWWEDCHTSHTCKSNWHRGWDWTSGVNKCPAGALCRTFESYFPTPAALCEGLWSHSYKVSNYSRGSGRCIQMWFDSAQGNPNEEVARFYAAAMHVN

The first experiment has as its target human folate receptor beta (hFolRβ) (human, UniProt P14207 17-230). As to the kind of experiment: cell-based or functional assay.
As for B1, the “cytotoxic activity on 293T cells expressing FolRβ, EC50” value was about 100000 pM.

The target of another experiment is human folate receptor alpha (hFolRα) on cells (human, UniProt P15328 25-234). As to the kind of experiment: cell-based or functional assay.
human folate receptor alpha (hFolRα) on cells, sequence (P15328 25-234 limits assumed): as the sequence (P15328 25-234 limits assumed) above
On to B1, for which the “cytotoxic activity on 293T cells expressing FolRα, EC50” value was under 10000 pM.

For the next experiment, the target named is Human folate receptor alpha (hFOLR1) (human, UniProt P15328 25-234). The experiment is described as follows: cell-based or functional assay.
Human folate receptor alpha (hFOLR1), sequence (P15328 25-234 limits assumed): as above
As for B2, the “Cell Killing (Igrov1) EC50” value stood at 83 pM and the “Cell Killing (Igrov1) Span” value worked out at 80%.
On the same counts, the results for B3 are 190 pM and 56%.
On the same counts, the results for B4 are 130 pM and 70%.
On the same counts, the results for B5 are 88 pM and 72%.

The next experiment concerns the target T1, human folate receptor alpha (hFOLR1) on cells (human, UniProt P15328 25-234). As to the kind of experiment: cell-based or functional assay.
As for B6, the “Igrov 2° Antibody Cell Killing, Nb-SC239, EC50” value was found to be 61 pM and the “Igrov 2° Antibody Cell Killing, Nb-SC239, span” value was 68%.
The matching figures for B7: 45 pM and 76%.
On the same counts, the results for B8 are 13 pM and 66%.
Take B9: the “Igrov 2° Antibody Cell Killing, Nb-SC239, EC50” value was 220 pM and the “Igrov 2° Antibody Cell Killing, Nb-SC239, span” value worked out at 71%.

The target of another experiment is human folate receptor alpha (hFOLR1) (human, UniProt P15328 25-234). As to the kind of experiment: cell-based or functional assay.
human folate receptor alpha (hFOLR1), sequence (P15328 25-234 limits assumed): as above
With B10, the “Igrov 2° antibody cell killing EC50” value came out at 38 pM, the “Igrov 2° antibody cell killing Span” value is 76% and the “KB 2° antibody cell killing Span” value came to 98%.
For B11, the “Igrov 2° antibody cell killing EC50” value worked out at 25 pM, the “Igrov 2° antibody cell killing Span” value came to 74% and the “KB 2° antibody cell killing Span” value was 93%.
For B12, the “Igrov 2° antibody cell killing EC50” value amounted to 39 pM, the “Igrov 2° antibody cell killing Span” value stood at 71%, the “KB 2° antibody cell killing EC50” value turned out to be 28 pM and the “KB 2° antibody cell killing Span” value was 94%.
On the same counts, the results for B13 are 21 pM, 76%, 64 pM and 91%.
On the same counts, the results for B14 are 27 pM, 73%, 57 pM and 94%.
On the same counts, the results for B15 are 16 pM, 67%, 49 pM and 96%.
Consider B16, for which the “Igrov 2° antibody cell killing EC50” value is 16 pM, the “Igrov 2° antibody cell killing Span” value was 75%, the “KB 2° antibody cell killing EC50” value was found to be 51 pM and the “KB 2° antibody cell killing Span” value was 92%.
With B17, the “Igrov 2° antibody cell killing EC50” value is 19 pM, the “Igrov 2° antibody cell killing Span” value turned out to be 79%, the “KB 2° antibody cell killing EC50” value came to 46 pM and the “KB 2° antibody cell killing Span” value is 97%.
The matching figures for B18: 26 pM, 81%, 57 pM and 96%.
The matching figures for B19: 38 pM, 78%, 58 pM and 94%.
On the same counts, the results for B20 are 36 pM, 83%, 73 pM and 97%.
With B21, the “Igrov 2° antibody cell killing EC50” value came to 23 pM, the “Igrov 2° antibody cell killing Span” value came out at 84%, the “KB 2° antibody cell killing EC50” value is 40 pM and the “KB 2° antibody cell killing Span” value amounted to 97%.

In the next experiment the target is T1, human folate receptor alpha (hFOLR1) on …. The experiment is described as follows: cell-based or functional assay. This is another data set of the same source.
As for B22, the “cytotoxic activity on Igrov1 cells in the presence of 0.5 µM un-conjugated 1848-H01, EC50” value is over 33000 pM and the “cytotoxic activity on OVCAR3 cells in the presence of 0.5 µM un-conjugated 1848-H01, EC50” value was over 33000 pM.
